For 2 substances, stoichiometry N results are on record in paper PMC8459933.

In assay [1] the target is PltB subunit of typhoid toxin (Salmonella enterica serovar Typhi). In words: cryo-EM structure.
For assay [2], the target named is tagless PltB pentamer (Salmonella enterica serovar Typhi). In words: SEC. Background: SEC sorts molecules by how far they enter the pores of the column.

As usually defined, the stoichiometry N is the number of molecules, sites or subunits per partner or assembly.

In assay [1], “PltB subunit of typhoid toxin (natural protein)” registered a stoichiometry N of 5.
In assay [2], tagless PltB pentamer (natural protein) gave a stoichiometry N of 5.
